The source of these data is article PMC11035111, “Angiotension II directly bind P2X7 receptor to induce myocardial ferroptosis and remodeling by activating human antigen R” (Redox Biology, 2024).

The test concerns the target T1, biotinylated angiotensin II (biotin (position not given)).
T1 construct: angiotensin II, the peptide hormone cut from angiotensinogen; Held by its biotin on the SA chip (BLI) or on streptavidin beads (pull-down); also called Bio-Ang II; bio-Ang II; source: bought: created by Beijing Fanbo Biological Chemical Co., Ltd
As to the kind of experiment: BLI; Octet R8; biotinylated Ang II (1 ug/ml in 1x PBS) captured on an SA chip to a signal of 0.8 nm; P2X7R protein in SD buffer at 1, 0.5, 0.25 and 0.0625 uM. As to conditions: both partners purified. Background: Biolayer interferometry detects binding as a change in optical thickness at a sensor tip.

One may read the Kd as the equilibrium constant for the complex coming apart. Low values mean a tighter complex, high ones a looser complex.

B1: purified P2X7R protein (extracellular domain) (domain or fragment)
chain: SDKLYQRKEPLISSVHTKVKGVAEVTENVTEGGVTKLVHGIFDTADYTLPLQGNSFFVMTNYLKSEGQEQKLCPEYPSRGKQCHSDQGCIKGWMDPQSKGIQTGRCIPYDQKRKTCEIFAWCPAEEGKEAPRPALLRSAENFTVLIKNNIDFPGHNYTTRNILPGMNISCTFHKTWNPQCPIFRLGDIFQEIGENFTEVAVQGGIMGIEIYWDCNLDSWSHRCQPKYSFRRLDDKYTNESLFPGYNFRYAKYYKENGMEKRTLIKAFGVRFDILVFGTGGKF
With B1, the Kd was determined as 9.63 nM.
